Results on one substance are retold here after publication PMC3752401.

For test [1], the target named is H3Kc9me3 core mononucleosome. Description: fluorescence polarisation. On the technique in general: Polarisation of emitted light reports the rotation of a fluorescent probe.
In test [2] the target is H3Kc9me3 core mononucleosome. The experiment in a line: native gel or EMSA.
The target in the next test is H3K9 core mononucleosome. Description: native gel or EMSA. Background: A gel shift assay detects complexes by their altered migration in electrophoresis.

Where only a bound is given, the exact number is not on record here.

Chain of Suv39/Clr4 (full length wild-type) (O60016 whole entry): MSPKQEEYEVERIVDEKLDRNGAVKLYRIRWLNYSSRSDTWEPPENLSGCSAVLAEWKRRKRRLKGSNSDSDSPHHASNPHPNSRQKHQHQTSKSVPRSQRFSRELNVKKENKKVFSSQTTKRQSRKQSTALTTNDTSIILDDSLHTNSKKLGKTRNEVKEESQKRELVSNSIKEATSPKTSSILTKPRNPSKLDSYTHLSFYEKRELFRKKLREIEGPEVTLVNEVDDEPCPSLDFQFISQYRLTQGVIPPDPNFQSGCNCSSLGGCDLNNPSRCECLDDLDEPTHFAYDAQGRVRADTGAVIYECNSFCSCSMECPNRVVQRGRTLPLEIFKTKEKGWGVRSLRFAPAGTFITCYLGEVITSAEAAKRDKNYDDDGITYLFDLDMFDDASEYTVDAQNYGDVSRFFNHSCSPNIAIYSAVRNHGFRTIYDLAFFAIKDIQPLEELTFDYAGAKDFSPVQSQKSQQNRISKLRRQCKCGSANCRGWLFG

With “Suv39/Clr4 (full length wild-type) (from UniProt O60016 1-490) (enzyme)”, in test [1], the fold sensitivity of the FP increase to the H3Kc9me3 mark over the H3K9 control was greater than 25 fold. Moreover, the K1/2 in test [2] came out at 1.5 µM; with H3K9 core mononucleosome, 1.8 µM.
